From the DeepSol protein solubility set

Assay: soluble on expression in E. coli; label from the status in PepcDB or PDB records

Sequence	soluble on expression in E. coli
MAKHAPQLPIEVDSETGVWTTDALPMLYVPRHFFVNNHMGIEEVLGADAYAEILYKAGYKSAWHWCEKEAECHGLEGVAVFEHYMKRLSQRGWGLFEIERINLEEGTAEVRLRHSAFVYVYGKVNRKVDYMFTGWFAGAMDQILAARGSSLRTVAEQVYSGAEDGHEDGLFVVKPL	soluble
AHHHHHHGSAVRLKTPLTWEDIRDLEIGDRVLLSGIVYTARDLAHRRFLEEGFPFNPEGAVIYHCGPLIKNGIVVSAGPTTSARMEKYLDFLFNRGVRGVIGKGGMNHEKFKGRAVYFSYPGGAGSLAREFIVKVRDVYWEDLGMTDAVWELEVRDMPLLVSIDSKGRSLYRKN	soluble
MAKSYDYQSAFDIIGPVMMGPSSSHTAGAVKIGNSARAVLGDMPKHIEIRYYESFAKTHQGHGTDVAIVGGAMGYSTFDSRIKSSLDIAKDENITIDIIEDEGESIGQHPNCAYIKANTKDGRYIEVIGISIGGGTIKLKGINVNGLNVELNHGLPMLVIDGNMNKAKINHLINDLSDMDLDLGEELIETNDNEGLVVFPLNKAISESALNIIKDKHSDLNVSYIK	not soluble
MTANREAIDMARVAAGAAAAKLADDVVVIDVSGQLVITDCFVIASGSNERQVNAIVDEVEEKMRQAGYRPARREGAREGRWTLLDYRDIVVHIQHQDDRNFYALDRLWGDCPVVPVDLSANSAGAQ	not soluble
MDPNKFREKEISKKEALELFEDNEIIFELFKFADSLRREEVGDIVTYVVNRNINFTNICVGNCRFCAFRANENDKHAYFLDIDEIAKRAVEAKKFGCTEVCIQGGLHPKIDTYYQAEILKAVHEATKPYGDIHIHAFSPMEVYFGAENAGLDIKEALKILKENGLNSMPGTAAEILDDDIRAELCPNKIKTKEWIYIIKEAHKLGIPTTATMMYGHIEEYKHWVNHLFIIKEIQEETNGFTEFVPLSFMHKYAPIYKEGKAKAGATGIEDLKVFAVSRIIFKGLIKNIQASWVKLGKKMVQVALRCGANDVGGTLIEESISRSAGAEHGVYMSVEEIRDMIKRVGLIPKERTTLYKILE	not soluble
MAHHHHHHMSNQGDFNTYIYIPVKCNESIKKRCELCFDVLFKLIEMKHKECYNKSKEKNLLCHNDINKGEIHKHIYYQLYKLNEHIKENNIEKDFKEPLHITISGSLNLKRYMINSFINKIKEELKNQNSFYLFFRNEVDLYKSQKNTKYFCSYTVKEDQQELYLNTLKEKINKILNEFDLKDTHLNRIYHLSLAYTNINLDVLLEKENKKCVEEETFFWPNINELILNKDIKENRLDDLYIYVNCIHIRIGYKLYKIPFKSFDDNLNVSDSYDSYMSSTDE	not soluble
MNSILSLIGRDTELFHQDINANEKELQSVVSQSRFLVLGGAGSIGQAVTKEIFKRNPQKLHVVDISENNMVELVRDIRSSFGYINGDFQTFALDIGSIEYDAFIKADGQYDYVLNLSALKHVRSEKDPFTLMRMIDVNVFNTDKTIQQSIDAGAKKYFCVSTDKAANPVNMMGASKRIMEMFLMRKSEEIAISTARFANVAFSDGSLLHGFNQRIQKNQPIVAPNDIKRYFVTPQESGELCLMSCIFGENRDIFFPKLSEALHLISFADIAVKYLKQLGYEPHLCESEDEARELAKTLPAQGKWPCLFTSSDTTGEKDFEEFFTDKETLDMARFDNLGIIKNDSLYQQELLELFEQKIGQMKTDRQWTKEEIVQLFFIMIPDFGHKETGKYLDSKM	soluble
MGSSHHHHHHSSGLVPRGSHMTPDDIAGFYAKRADLDLDNYIELDFDFECAGDPHEAAAHLCSEQSTAQWRRVGFDEDFRPRFAAKVLELSAEPRPSGFSVPVECAARGPVHACRVTIAHPHGNFGAKIPNLLSAVCGEGVFFSPGIPLIRLQDIRFPEPYLAAFDGPRFGIAGVRERLQAFDRPIFFGVIKPNIGLPPQPFAELGYQSWTGGLDIAKDDEMLADVDWCPLAERAALLGDACRRASAETGVPKIYLANITDEVDRLTELHDVAVANGAGALLINAMPVGLSAVRMLRKHATVPLIAHFPFIAAFSRLANYGIHSRVMTRLQRLAGFDVVIMPGFGPRMMTPEHEVLDCIRACLEPMGPIKPCLPVPGGSDSAATLENVYRKVGSADFGFVPGRGVFGHPMGPAAGATSIRQAWDAIAAGIPVPDHAASHPELAAALRAFGGR	soluble
MAHHHHHHMEVEGTKERARGVTTFTRADLELREAAEDHRALLAEPWASHALRKGYSGREEHTKWITETWEAFERRKEDQKLYLERHDLCLQYKAAQLSETRRLSEQKSAALVEKMMALEAARKGALLQSRHFLFVDYYDYQQFLFRNQRSFVEDEEKLLRCKLSETEDDLMCLLVIQWHLSSHLHAAREKERVEEEAAAERLREFQYRQKLEEERLREEQRIAQEKEASQAEKEQAELEKRLERKRRDAERRAKVRAEREQRRAQE	not soluble
MTKKIIGIAGNQLLQAAEVFHGNQVTYTPQGFVSAVQAAGGVPLVLPIGPKELAATYIQQIDKLLLAGGQDVAPEFYGQEPHIKLEETNRDRDEFELALIEEALKQNKPIFAVCRGMQLVNVALGGTLYQDLSMYPQWSVKHGQQPTQPIFATHRIDVEPDSQLSNIYGTTGQVNSYHHQALHTLGKDLRVTAWSSDGLAEAVESTNEQQPLLAVQWHPELMYARDAKSQALFNYFVQKL	not soluble
GPGSMFHRAFVSSSDLTGCTIALSSVCTQKRYWAKPKKRPKVGQGFHEKAQKWREEYLLDRHRALADSLRAYVEFSTSKRVEPWDARFKPFDRIEKDGVYVLMRYMMEEKLQLCNYHHRPVKRLFCNIGLMGPQITTKARWKPYRFATNPAGTSKAERMYQRDKTVYTHGHND	not soluble
MGSDKIHHHHHHMDFIEVYPNALPDDLCDRLILAFDQHTGVVDGQTGNGVDPEKKISRDLTLDNFDDMQPLKNELLSYTLKGVVDYFTQYSMALMGAVAVSVSDAEGKPTTLTPSNFAQLGLPKVDGLVKYLYRSGSINIQKYQRNKGGYPHWHSEQFPQSGHNEALHRVVFYMFYLNDVEEGGETEFYYQRRKISPKKGTMVIAPAGFTHSHRGNMPISNDKYIATSWVMFNRAEQLYTVYA	not soluble
MSLSRGRLKIAVPRLQRVANFDDLDPLVAEPDIDLQWIQPGSPIPADVDVVVLPGSKATRTELDLMRREGWDIDIHAHVRRGGRVVGLCAGFQMLGKVVRDPQGIEGPAGETAGLGLLDIETEISGDKRLIEIDAVDRISGCRVVGYEMHMGRTTGAGLARPWLRLEEGGSERAEGAVSADGRVSGGYLHGIFGGDAFRSAWLAQIGAASSGLDFERRVEETLDALADHCESNLDLDALLALAREGHHHHHH	soluble
MGKNVVVLGTQWGDEGKGKVVDLLTERAKYVVRYQGGHNAGHTLVINGEKTVLHLIPSGILRENVISIIGNGVVLAPDALMKEMTELEARGVPVRERLLLSEACPLILPYHVALDNAREKARGAKAIGTTGRGIGPAYEDKVARRGLRVSDLFNKETFAIKLKEIVEYHNFQLVHYYKEAAVDYQKVLDDVLAIADILTAMVVDVSELLDNARKQGELIMFEGAQGTLLDIDHGTYPYVTSSNTTAGGVATGSGLGPRYVDYVLGIVKAYSTRVGAGPFPTELNDETGEFLRKQGNEYGATTGRSRRTGWLDIVAVRRAVQINSLSGFCMTKLDVLDGLKEVKLCVGYRMPDGREVDTTPLAAEGWEGIEPIYETMPGWSETTFGVKEHSKLPQAALNYIQRVEELTGVPIDIISTGPDRDETMILRDPFDA	soluble
MLGGNNDNPVPQVLMNDSQFRYQSNTSLNQLHLLGTMRAGCTIDPVNYFANDNLAPMMRLNSTRGRETENNNIMQRQQKLQISLNYNYNNNNTVVQDEVPKQNLVSTGLRLSYDDDERNSSVTSANGSITTPVYQSLGDNIRLDLNRQNDELDQFIKFRADQMAKGVRDIKQRHVTSFVTALEKDVSKKLQEKDHEIESMNKKNRELVDKIKQVAVEAQNWHYKAKYNESVVNALKVNLQQVMSHGNDNNAVGGGVADHHQMKEGFGDSEIDDEAASYNYLNIPGMPSTGMRCKLCNVKNVSVLLVPCRHLSLCKDCDVFTGVCPVCQSLKTSSVQVFFF	soluble
SPTPVELHKVTLYKDSGMEDFGFSVADGLLEKGVYVKNIRPAGPGDLGGLKPYDRLLQVNHVRTRDFDCCLVVPLIAESGNKLDLVISRNP	soluble
MIVPGGFPAPVTGSAVAASPPLPTVRLLSLDAHGRVLDWINWQDAACLYARDAVSWTLGEPCMQIHGGVSRLTGERSVLELHPIIAARGHARSRALDPTPTLTNTALFARDSQLCMYCGQHFSRPHLTRDHVMPVSKGGRDSWENVVTACFQCNSRKANRTPQQAHMPLLAVPYRPSWIEHLILSNRNILSDQMAFLRAQLPKRSKLSLLEHHHHHH	not soluble
DLQNMDATNWLGNSVSEGFIHQFQRRGFKVVDFKTTGSIQVTQQGDFALSRDWQDLAQEQQIQYVLTGTMLRQEGGVLVNARVVGMQSRVVVATAQGFLPADRIGRDLDTLNSIRTQDGVLIRSDPTIRQPYTVILRP	not soluble
MTIIAGTVVKGKQLGRKLGFPTANVDAKIHGLRNGVYGVLATVNHQFHLGVMNIGVKPTVGSNLEKTLEIFLFDFHRDIYGEKIECSILFKIREERRFDSLESLTKQIKKDISCVAKRFELIGIMAPNKKESLLSHQELNLPDLCFYKKCNNLYGVNRGVYNVIDNWFFEYGITQVAYRRIYILSFLSFLKEDNPKVSSKYIRFGAGGLADKLNRFISSYVEESEENILGLEHHHHHH	soluble
AANDNNVEWNGLFHDQGPLFDNAPEPTSTQSVTLKLRTFKGDITSANIKYWDTADNAFHWVPMVWDSNDPTGTFDYWKGTIPASPSIKYYRFQINDGTSTAWYNGNGPSSTEPNADDFYIIPNFKTPDWLKNGVMYQIFPDRFYNGDSSNDVQTGSYTYNGTPTEKKAWGSSVYADPGYDNSLVFFGGDLAGIDQKLGYIKKTLGANILYLNPIFKAPTNHKYDTQDYMAVDPAFGDNSTLQTLINDIHSTANGPKGYLILDGVFNHTGDSHPWFDKYNNFSSQGAYESQSSPWYNYYTFYTWPDSYASFLGFNSLPKLNYGNSGSAVRGVIYNNSNSVAKTYLNPPYSVDGWRLDAAQYVDANGNNGSDVTNHQIWSEFRNAVKGVNSNAAIIGEYWGNANPWTAQGNQWDAATNFDGFTQPVSEWITGKDYQNNSASISTTQFDSWLRGTRANYPTNVQQSMMNFLSNHDITRFATRSGGDLWKTYLALIFQMTYVGTPTIYYGDEYGMQGGADPDNRRSFDWSQATPSNSAVALTQKLITIRNQYPALRTGSFMTLITDDTNKIYSYGRFDNVNRIAVVLNNDSVSHTVNVPVWQLSMPNGSTVTDKITGHSYTVQNGMVTVAVDGHYGAVLAQ	soluble
SRNFSVFERFSKAFKDHPSLTRILVVSTISGGGLIAYSEANASYGANGGAVVETGTKKKKVVLLGTGWAGTSFLKNLNNSQYEVQIISPRNYFAFTPLLPSVTCGTVEARSVVEPIRNIGRKNVDTSYLEAECFKIDPASKKVYCRSKQGLSSNGKKEFSVDYDYLVIATGAQSNTFNIPGVEENCHFLKEVEDAQRIRKTVIDSFEKASLPELSDEERKRILHFVVVGGGPTGVEFAAELHDFVTEDLVSLYPRAKGSVRITLLEAADHILTMFDKRITEFAEEKFSRDGIDVKLGSMVTKVNEKDISAKTKGGEVSSIPYGMIVWSTGIGTRPVIKDFMKQIGQGNRRALATDEWLRVEGTDNIYALGDCATINQRKVMEDVSAIFSKADKDKSGTLTLKEFQEAMDDICVRYPQVELYLKSKRMRGIADLLKEAETDDVSKNNIELKIEEFKSALSQVDSQVKFLPATAQVAAQQGAYLAKCFDRMEECEKSPEGPIRMRGEGRHRFRPFRYRHLGQFAPLGGEQTAAQLPGDWVSIGHSSQWLWYSVYASKQVSWRTRVLVVSDWMRRFIFGRDSSSI	soluble
